Data published in PMC5579192, “De novo design of antibody complementarity determining regions binding a FLAG tetra-peptide” (Scientific Reports, 2017).
Numbering of substitutions follows the chain as printed.

T1: MBP-KEE ligand (EE peptide) (peptide tag (EE/Glu-Glu), derived from …)
T1 construct: EE peptide presented by MBP
T1 chain: EYMPME

T2: carrier protein (scFv 14B7) with the minimal DYKD peptide at the n-terminus (synthetic peptide tag (minimal FLAG))
T2 construct: minimal FLAG peptide at the protein n-terminus; irrelevant scFv 14B7 used as carrier protein; also called n-DYKD; n-DYKD ligand; source: plasmid pAK400/14B7
T2 chain: DYKD

B1: EEh13.6 Fab (Fab, V domains shown)
VH: QVQLQQSGPEDVKPGASVKISCKASGDSLSSFNAGVNWVKQSPGKGLEWLAHGAVMSTRYNPSLKSRATLTVDKTSSTVYLELRSLTSEDSSVYYCAKSTGRYDFWGQGTTVTVSS
VL: DIVMTQTPSSLPVSLGDQASISCRSSQSIVHSNGNTYLEWYLQKPGQSPKLLIYKVSNRFSGVPDRFSGSGSGTDFTLKISRVEAEDLGIYYCFQGSLVPPTFGAGTKLELK
notes: VH as the VH of m1: framework of the αEE scFv (PDB 3NN8) with designed CDRs H1-H3; heavy chain constant part of the Fab from the vector pFabF; not described; VL as in the αEE scFv (PDB 3NN8), not modified in the EEh library; kappa light chain constant domain from the vector pFabF; human by the detection reagent (goat anti-human kappa); This Fab co-purified with free light chain (33 % monomer); …
B2: αEE Fab (parental) (Fab, V domains shown)
VH: QVQLQQSGPEDVKPGASVKISCKASGYSLSTSGMGVNWVKQSPGKGLEWLAHIYWDDDKRYNPSLKSRATLTVDKTSSTVYLELRSLTSEDSSVYYCARRGGSSHYYAMDYWGQGTTVTVSS
VL: B1 VL
notes: VH of the αEE scFv; heavy chain constant part of the Fab; not described; VL of the αEE scFv; kappa light chain constant domain; human by the detection reagent (goat anti-human kappa); also called parental αEE Fab; source: bacterial periplasm, purified Fab
B3: EEh14.3 Fab (Fab, V domains shown)
VH: QVQLQQSGPEDVKPGASVKISCKASGDSLSSYNAGVNWVKQSPGKGLEWLAHMAGVSTRYNPSLKSRATLTVDKTSSTVYLELRSLTSEDSSVYYCVRNEWSGAFWGQGTTVTVSS
VL: B1 VL
notes: VH as the VH of m2: framework of the αEE scFv (PDB 3NN8) with designed CDRs H1-H3; heavy chain constant part of the Fab from the vector pFabF; not described; VL as in the αEE scFv (PDB 3NN8), not modified in the EEh library; kappa light chain constant domain from the vector pFabF; human by the detection reagent (goat anti-human kappa); also called Fab EEh14.3
B4: EEh13.6 scFv displayed on phage (scFv, V domains shown)
VH: B1 VH
VL: B1 VL
notes: VL as in the αEE scFv (PDB 3NN8); the light chain was not modified in the EEh library; linker, printed as (GGGGS)4; VH: framework of the αEE scFv (PDB 3NN8) with designed CDRs H1-H3; model PDB file in the supplementary datasets; Orientation VL-(GGGGS)4-VH; no amino acid differences from αEE outside the CDRs; also called EEh13.6 scFv-phage; source: E. coli, scFv fused to truncated pIII on phage …
B5: EEh14.3 scFv displayed on phage (scFv, V domains shown)
VH: B3 VH
VL: B1 VL
notes: VL as in the αEE scFv (PDB 3NN8); the light chain was not modified in the EEh library; linker, printed as (GGGGS)4; VH: framework of the αEE scFv (PDB 3NN8) with designed CDRs H1-H3; model PDB file in the supplementary datasets; Orientation VL-(GGGGS)4-VH; no amino acid differences from αEE outside the CDRs; also called EEh14.3 scFv-phage; source: E. coli, scFv fused to truncated pIII on phage …
B6: EEf15.4 Fab (Fab, V domains shown)
VH: QVQLQQSGPEDVKPGASVKISCKASGFSIKGANVNWVKQSPGKGLEWLAHVRGDASTRYNPSLKSRATLTVDKTSSTVYLELRSLTSEDSSVYYCADRKMYSFYSGGEAWGQGTTVTVSS
VL: DIVMTQTPSSLPVSLGDQASISCRSSNARSGSLEWYLQKPGQSPKLLIYDGNNRFSGVPDRFSGSGSGTDFTLKISRVEAEDLGIYYCSAFDQTNKYVGFGAGTKLELK
notes: VH as the VH of m3: framework of the αEE scFv (PDB 3NN8) with designed CDRs H1-H3; heavy chain constant part of the Fab from the vector pFabF; not described; VL as the VL of m3: framework of the αEE scFv (PDB 3NN8) with designed CDRs L1-L3; kappa light chain constant domain from the vector pFabF; human by the detection reagent (goat anti-human kappa); also called Fab EEf15.4
B7: EEf15.4a Fab (Fab, V domains shown)
VH: B6 VH with F27Y, S28I, I29G, K30S, G31S, A32H, N33T
VL: B6 VL
notes: VH as the VH of m4: as EEf15.4 except CDR H1, which is that of design EEf5.1; framework of the αEE scFv (PDB 3NN8); heavy chain constant part of the Fab from the vector pFabF; not described; VL as the VL of m3: framework of the αEE scFv (PDB 3NN8) with designed CDRs L1-L3; kappa light chain constant domain from the vector pFabF; human by the detection reagent (goat anti-human kappa); also called …
B8: EEf15.4 scFv displayed on phage (scFv, V domains shown)
VH: B6 VH
VL: B6 VL
notes: VL: framework of the αEE scFv (PDB 3NN8) with designed CDRs L1-L3; model PDB file in the supplementary datasets; linker, printed as (GGGGS)4; VH: framework of the αEE scFv (PDB 3NN8) with designed CDRs H1-H3; Orientation VL-(GGGGS)4-VH; no amino acid differences from αEE outside the CDRs; also called EEf15.4 scFv-phage; source: E. coli, scFv fused to truncated pIII on phage (phagemid pMopac24); …
B9: EEf15.4a scFv displayed on phage (scFv, V domains shown)
VH: B6 VH with F27Y, S28I, I29G, K30S, G31S, A32H, N33T
VL: B6 VL
notes: VL as the VL of EEf15.4: framework of the αEE scFv (PDB 3NN8) with designed CDRs L1-L3; linker, printed as (GGGGS)4; VH as the VH of EEf15.4 except CDR H1, which is that of design EEf5.1; framework of the αEE scFv (PDB 3NN8); Result of a gene synthesis error that combined CDR H1 of EEf5.1 with the other five CDRs of EEf15.4; also called EEf15.4a scFv-phage; source: E. coli, scFv fused …

What was measured:
Conditions in all cases: both partners purified
[1] = target: T1, MBP-KEE ligand (EE peptide); test: ELISA; wells coated with carrier protein ligands (10 μg/mL); purified Fab serially diluted; detected with goat-anti-human kappa-HRP
[2] = target: T2, carrier protein (scFv 14B7) with the …; test: as above
[3] = target: T1, MBP-KEE ligand (EE peptide); test: as above
[4] = target: T1, MBP-KEE ligand (EE peptide); test: ELISA; monoclonal phage ELISA: phage purified by NaCl-PEG precipitation, serially diluted at known pfu, on wells coated with ligand (4 μg/ml); detected with anti-M13-HRP; signal shown at 10^11 pfu
[5] = target: T3, carrier protein (scFv 14B7) with the minimal DYKD peptide at the n-terminus (synthetic peptide tag (minimal FLAG)); test: ELISA; wells coated with carrier protein ligands (10 μg/mL); purified Fab serially diluted; detected with goat-anti-human kappa-HRP; remark: listed apart in the source
T3 construct: minimal FLAG peptide at the protein n-terminus; irrelevant scFv 14B7 used as carrier protein; also called n-DYKD; n-DYKD ligand; source: plasmid pAK400/14B7

Binder	binding result [1]	binding result [4]	other results
B1	no binding	–	EC50 [2]: 21 nM
B2	–	–	EC50 [3]: 35.3 nM
B3	no binding	–	EC50 [2]: 50 nM
B4	–	no binding	–
B5	–	no binding	–
B6	no binding	–	EC50 [5]: 4.1 nM
B7	no binding	–	EC50 [5]: 4.8 nM
B8	–	no binding	–
B9	–	no binding	–
